Source: patent publication US20160039936A1, “FIBROBLAST GROWTH FACTOR RECEPTOR INHIBITION FOR THE TREATMENT OF DISEASE” (UNIVERSITY OF MIAMI, priority 2011, published 2016)

Molecular target: T1, FGFR4 (Rattus norvegicus, UniProt Q498D6)
T1 construct: endogenous in cells; host or cells: isolated neonatal rat ventricular myocytes (NRVM)
Experiment: Binding of PLCγ to FGFR4 in NRVM (immunoprecipitation)
Type: cell-based
Settings: 30 minutes, vs PBS or FGF2
Procedure: HEK293 cells in 10 cm-dishes were treated with growth factors for 30 minutes, cells were scraped using 1 ml IP buffer (50 mM Tris-HCl pH7.5, 150 mM NaCl, 5 mM MgCl2, 2 mM EGTA, 1% Triton X-100, 5% Glycerol, protease and phosphatase inhibitors), and protein lysates were prepared as described above. V5-tagged proteins were immunoprecipitated using 25 μl of anti-V5 agarose beads (Sigma-Aldrich). After 5 washes in IP buffer, proteins were eluted in 100 μl of sample buffer and analyzed by SDS-PAGE and immunoblotting. For endogenous immunoprecipitation studies from NRVM, cells in 10cm-dishes were treated with growth factors for 30 minutes. Some cells were pre-treated with FGFR4 blocking antibody at 10 μg/ml for 1 hour (human monoclonal, U3-11; U3Pharma). […] We added 50 μl of a 1:1 mix of Protein A on sepharose beads and Protein G on agarose beads that were previously equilibrated in RIPA buffer, followed by incubation at 4° C. under rotation for 2 hours, protein elution in sample buffer, and SDS-PAGE and Western blot analyses.

T1 sequence (Q498D6 17-800): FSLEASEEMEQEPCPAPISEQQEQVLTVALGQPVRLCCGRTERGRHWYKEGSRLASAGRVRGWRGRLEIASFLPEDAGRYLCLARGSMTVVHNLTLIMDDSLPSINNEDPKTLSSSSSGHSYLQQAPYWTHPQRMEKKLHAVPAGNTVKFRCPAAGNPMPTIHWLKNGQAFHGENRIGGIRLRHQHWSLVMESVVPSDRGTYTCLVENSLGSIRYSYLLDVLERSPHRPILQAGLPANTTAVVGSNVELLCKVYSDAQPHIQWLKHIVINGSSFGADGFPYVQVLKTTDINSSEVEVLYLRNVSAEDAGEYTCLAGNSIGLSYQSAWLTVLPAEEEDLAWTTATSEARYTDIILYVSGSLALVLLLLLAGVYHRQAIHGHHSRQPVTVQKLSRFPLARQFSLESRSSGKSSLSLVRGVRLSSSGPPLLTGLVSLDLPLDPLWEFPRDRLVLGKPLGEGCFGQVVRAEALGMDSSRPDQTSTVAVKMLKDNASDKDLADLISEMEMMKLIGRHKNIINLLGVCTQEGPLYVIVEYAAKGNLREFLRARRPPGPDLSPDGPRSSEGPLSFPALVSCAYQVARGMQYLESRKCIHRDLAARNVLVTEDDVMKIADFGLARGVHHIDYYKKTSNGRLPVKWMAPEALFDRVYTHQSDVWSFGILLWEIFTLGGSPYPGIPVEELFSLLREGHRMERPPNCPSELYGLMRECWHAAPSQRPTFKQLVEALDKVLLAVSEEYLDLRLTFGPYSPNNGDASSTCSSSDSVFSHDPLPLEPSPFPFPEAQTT

B1: FGF23: recombinant mouse FGF23, 6His-tagged Tyr25-Val251 (Arg179Gln) (R&D Systems) (protein)
chain: YPDTSPLLGSNWGSLTHLYTATARTSYHLQIHRDGHVDGTPHQTIYSALMITSEDAGSVVITGAMTRRFLCMDLHGNIFGSLHFSPENCKFRQWTLENGYDVYLSQKHHYLVSLGRAKRIFQPGTNPPPFSQFLARRNEVPLLHFYTVRPRRHTQSAEDPPERDPLNVLKPRPRATPVPVSCSRELPSAEEGGPAASDPLGVLRRGRGDARGGAGGADRCRPFPRFV
modifications: left off: small tags and cut ends
  levels of co-purified FGFR4 in anti-PLCγ eluates: elevated
